Test results as given in patent US20190169289A1 (Scripps Research, published 2019).

How the values were obtained:
anti-Her2-FLAG switch = assay: ELISA, absorbance at 375nm, of anti-FLAG antibody 5B3 on the anti-Her2-FLAG switch; the text gives the same value as an apparent affinity of 2.2×10^-10 M
[1] = biological target: T1, anti-GCN4 (52SR4 scFv) sCAR with CD8 hinge; assay: flow cytometry on sCAR-T cells
T1 construct: 273 is the protein without leader; also called sCAR (long); CD8 sCAR

Row | Binder | EC50 (anti-Her2-FLAG switch) | binding result [1]
1 | anti-FLAG monoclonal antibody (clone: 5B3) (antibody, V domains shown, Mouse hybridoma antibody) VH: EVQLQQSGAELVKPGASVKLSCTASGFNIKDYYMHWVKQRTEQGLEWIGRIDPEDGETKYAPKFQGKATITADTSSKTAYLQLSSLTSEDTAVYYCARLKGGYWGQGTTLTVSS VL: not shown | 0.22 nM | 
2 | anti-CD19 (FMC63) IgG LCC1 switch (antibody, also called LCC1 IgG; IgG (FcNull) switch) light: DIQMTQTTSSLSASLGDRVTISCRASQDISKYLNWYQQKPDGTVKLLIYHTSRLHSGVPSRFSGSGSGTDYSLTISNLEQEDIATYFCQQGNTLPYTFGGGTKLEIKRTVAAPSVFIFPPSDEQLKSGTASVVCLLNNFYPREAKVQWKVDNALQSGNSQESVTEQDSGGGGSNYHLENEVARLKKLGGGGSDSTYSLSSTLTLSKADYEKHKVYACEVTHQGLSSPVTKSFNRGEC heavy: EVKLQESGPGLVAPSQSLSVTCTVSGVSLPDYGVSWIRQPPRKGLEWLGVIWGSETTYYNSALKSRLTIIKDNSKSQVFLKMNSLQTDDTAIYYCAKHYYYGGSYAMDYWGQGTSVTVSSASTKGPSVFPLAPSSKSTSGGTAALGCLVKDYFPEPVTVSWNSGALTSGVHTFPAVLQSSGLYSLSSVVTVPSSSLGTQTYICNVNHKPSNTKVDKKVEPKSCDKTHTCPPCPAPPVAGPSVFLFPPKPKDTLMISRTPEVTCVVVDVSHEDPEVKFNWYVDGVEVHNAKTKPREEQYNSTYRVVSVLTVLHQDWLNGKEYKCKVSNKGLPSSIEKTISKAKGQPREPQVYTLPPSRDELTKNQVSLTCLVKGFYPSDIAVEWESNGQPENNYKTTPPVLDSDGSFFLYSKLTVDKSRWQQGNVFSCSVMHEALHNHYTQKSLSLSPGK |  | binds
